Test results: IntAct's records for PubMed 22001206

B1: Dipeptidyl peptidase 4 (Homo sapiens), P27487 (parent)
chain: MKTPWKVLLGLLGAAALVTIITVPVVLLNKGTDDATADSRKTYTLTDYLKNTYRLKLYSLRWISDHEYLYKQENNILVFNAEYGNSSVFLENSTFDEFGHSINDYSISPDGQFILLEYNYVKQWRHSYTASYDIYDLNKRQLITEERIPNNTQWVTWSPVGHKLAYVWNNDIYVKIEPNLPSYRITWTGKEDIIYNGITDWVYEEEVFSAYSALWWSPNGTFLAYAQFNDTEVPLIEYSFYSDESLQYPKTVRVPYPKAGAVNPTVKFFVVNTDSLSSVTNATSIQITAPASMLIGDHYLCDVTWATQERISLQWLRRIQNYSVMDICDYDESSGRWNCLVARQHIEMSTTGWVGRFRPSEPHFTLDGNSFYKIISNEEGYRHICYFQIDKKDCTFITKGTWEVIGIEALTSDYLYYISNEYKGMPGGRNLYKIQLSDYTKVTCLSCELNPERCQYYSVSFSKEAKYYQLRCSGPGLPLYTLHSSVNDKGLRVLEDNSALDKMLQNVQMPSKKLDFIILNETKFWYQMILPPHFDKSKKYPLLLDVYAGPCSQKADTVFRLNWATYLASTENIIVASFDGRGSGYQGDKIMHAINRRLGTFEVEDQIEAARQFSKMGFVDNKRIAIWGWSYGGYVTSMVLGSGSGVFKCGIAVAPVSRWEYYDSVYTERYMGLPTPEDNLDHYRNSTVMSRAENFKQVEYLLIHGTADDNVHFQQSAQISKALVDVGVDFQAMWYTDEDHGIASSTAHQHIYTHMSHFIKQCFSLP
partner: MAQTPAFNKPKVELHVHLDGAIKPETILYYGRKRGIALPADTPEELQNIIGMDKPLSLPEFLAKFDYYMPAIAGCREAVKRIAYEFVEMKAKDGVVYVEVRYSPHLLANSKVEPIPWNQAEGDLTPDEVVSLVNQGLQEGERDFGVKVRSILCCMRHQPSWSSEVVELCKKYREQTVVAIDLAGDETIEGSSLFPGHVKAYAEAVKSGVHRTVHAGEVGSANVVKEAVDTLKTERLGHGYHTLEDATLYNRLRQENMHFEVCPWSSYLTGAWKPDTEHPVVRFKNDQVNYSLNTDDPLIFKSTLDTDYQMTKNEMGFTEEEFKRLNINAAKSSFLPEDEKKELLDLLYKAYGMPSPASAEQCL

Variants of: B1
Conditions: with ada_bovin ADA

effect of a mutation on the interaction | Variant
decreasing interaction | Y256A

Variants of: B1
Conditions: with ada_bovin ADA
Remark: another data set of the same source

effect of a mutation on the interaction | Variant
decreasing interaction | Y248A

Variants of: B1
Conditions: with ada_bovin ADA
Remark: another data set of the same source

effect of a mutation on the interaction | Variant
decreasing interaction | Y238A
